# ± gives the uncertainty stated by the source.
# Experiment: protein stability index of a GFP-peptide fusion (yeast GPS) (PSI 1-4); higher = more stable; sorted into four equal gates, so the index is relative within each strain
# How it was run: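 The protein stability index of a peptide was calculated by multiplying its read frequency in each gate by that gate's number and adding the products. The peptides were tiled 17-residue stretches of yeast proteins, fused downstream of GFP on a Cherry-expressing plasmid and carried in yeast as a pooled library. Mid-log cultures in leucine-free medium were sorted into four equal gates by GFP/Cherry ratio, and each gate's plasmids were PCR-amplified and Illumina-sequenced.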
Sequence,protein stability index (doa10∆),protein stability index (pdr5∆),protein stability index (san1∆),protein stability index (ubr1∆)
KYIGEGSRMVRELFVMA [RPT6],2.24 ± 0.063,2.11 ± 0.058,2.81 ± 0.082,1.89 ± 0.07
DQFRDVEITFGKEFGDV [RRP45],3.21 ± 0.1,3.27 ± 0.063,3.54 ± 0.086,3.18 ± 0.067
VVRNMLALTTLSEPLIK [YCG1],1.87 ± 0.07,1.6 ± 0.059,1.4 ± 0.11,1.66 ± 0.061
RQCFREKANDIGFHKYR [RPS29B],3.34 ± 0.15,3.35 ± 0.13,2.96 ± 0.1,2.88 ± 0.1
RYKFPGQQKIILSKKWG [RPL10],2.69 ± 0.22,–,–,2.29 ± 0.21
RVLTQDGRVYIGQLMAF [SMB1],3.48 ± 0.098,3.26 ± 0.083,2.63 ± 0.09,3.05 ± 0.041
PKSSPLKKNNYNSFPHS [SIR4],2.79 ± 0.099,3.08 ± 0.076,3.07 ± 0.046,3.06 ± 0.039
RYKPGTVALREIRRFQK [HHT1],3.19 ± 0.11,2.97 ± 0.091,3.07 ± 0.065,3.07 ± 0.078
QLNEKLVGRLRKCETQK [YCS4],2.03 ± 0.086,1.44 ± 0.062,2.22 ± 0.1,2 ± 0.061
GKQAIGAIAYNQFKRID [RET1],2.27 ± 0.2,–,–,2.28 ± 0.14
SSQFVRLASEPGIISIT [YMR129W/POM152],2.04 ± 0.094,2.14 ± 0.062,1.99 ± 0.12,1.78 ± 0.04
RVKIANTSAATVHTATS [SSN2],2.86 ± 0.1,2.65 ± 0.051,2.39 ± 0.071,2.52 ± 0.094
ELSDNEENFEATRTLVA [YCG1],3.13 ± 0.12,3.09 ± 0.096,2.89 ± 0.14,3.04 ± 0.081
EVYMRYRNFMVNSYRLN [SWI3],2.19 ± 0.062,1.62 ± 0.06,1.46 ± 0.099,1.44 ± 0.097
ILTPESQLKKTKAQQKT [RPL7B],2.86 ± 0.095,2.89 ± 0.11,2.91 ± 0.076,2.86 ± 0.048
MCEQALSALFTISSKPD [YCS4],2.22 ± 0.038,1.72 ± 0.04,1.87 ± 0.056,1.77 ± 0.032
PHHNQSPRNTYQCAMGK [RET1],2.68 ± 0.17,2.97 ± 0.14,3 ± 0.14,2.89 ± 0.24
ANHDDQDDIDEMVENSS [SRP68],3.1 ± 0.1,3.2 ± 0.11,3.14 ± 0.095,3.13 ± 0.07
IEDVTPVPSDSTRKKGG [RPS14B],2.99 ± 0.039,3.15 ± 0.045,2.96 ± 0.051,3.03 ± 0.04
LASEVGDPALVYKFMSL [ECM29],2.32 ± 0.069,2.4 ± 0.067,2.34 ± 0.093,2.05 ± 0.034
YLHNVELGEKKNEKLKF [ISW2],2.84 ± 0.083,2.68 ± 0.094,2.89 ± 0.096,2.87 ± 0.1
ESYKPSVQLPDMAKLKK [SWI3],2.94 ± 0.081,2.9 ± 0.081,2.81 ± 0.06,2.79 ± 0.068
VVVVGTVTDDARIFEFP [RPL18A],2.75 ± 0.14,2.9 ± 0.097,2.6 ± 0.15,2.79 ± 0.092
GVARIYASFNDTFVHVT [RPS14B],1.64 ± 0.082,2 ± 0.085,1.92 ± 0.077,2.05 ± 0.095
EFLFESLKNDLPQFRSS [ECM29],2.93 ± 0.087,3.1 ± 0.092,3.28 ± 0.082,3 ± 0.11
NAISLQLKYDTSVQEKE [YIL149C/MLP2],2.61 ± 0.13,2.33 ± 0.12,2.75 ± 0.099,2.92 ± 0.07

Sequence,protein stability index (doa10∆),protein stability index (pdr5∆),protein stability index (san1∆),protein stability index (ubr1∆)
AVHNGGRKHVAALRTVK [RPL9A],–,–,–,2.88 ± 0.19
ADLKKGKDLSPAINYTK [QCR2],3.26 ± 0.13,3.36 ± 0.08,3.32 ± 0.086,3.23 ± 0.065
LIKTLSTLHMLGYTHIA [RPP1],2.49 ± 0.081,2.65 ± 0.087,2.62 ± 0.099,2.65 ± 0.071
MMCDFGTGNNNKLNFIV [DIB1],1.13 ± 0.084,1.22 ± 0.048,1.96 ± 0.15,1.6 ± 0.061
SKEGQYKAKIKELENNL [YIL149C/MLP2],2.75 ± 0.12,1.49 ± 0.053,2.18 ± 0.13,3.03 ± 0.069
KFHSELQYLDKHIKNLE [RPN12],3.14 ± 0.12,2.7 ± 0.17,2.84 ± 0.13,3.15 ± 0.072
GSAELRNSYPASFYSVN [RPN3],3.12 ± 0.21,3.15 ± 0.11,2.87 ± 0.059,3.55 ± 0.092
ILADEMGLGKTLQTISF [ISW2],3.09 ± 0.07,3.06 ± 0.066,2.91 ± 0.057,2.77 ± 0.061
AEYAQLLAKRLSERKAE [RPS6A],2.41 ± 0.051,2.11 ± 0.048,2.16 ± 0.082,2.28 ± 0.038
HYPEIEDLVDRIENPEK [RPP0],2.84 ± 0.1,3.17 ± 0.081,2.97 ± 0.12,3.05 ± 0.072
KQQEQLEQQKQPTGLLK [YMR153W/NUP53],3.35 ± 0.13,3.12 ± 0.14,2.97 ± 0.069,3.15 ± 0.065
ISEVMEDRNQRIKEMYW [FAS1],3.07 ± 0.16,3.3 ± 0.17,2.99 ± 0.12,2.97 ± 0.12
LEGETDPLRIAMKELAE [RPO26],3.49 ± 0.21,3.34 ± 0.057,3.27 ± 0.1,3.36 ± 0.15
EGKVTKLRRECSNPTCG [RPS31],3.31 ± 0.11,3.16 ± 0.089,3.18 ± 0.078,3.1 ± 0.083
SHFVSAVSTIASISLAI [RPP0],1.81 ± 0.073,1.37 ± 0.073,1.21 ± 0.13,1.11 ± 0.066
NYGSSLQWHAMIELICS [AAR2],1.31 ± 0.13,1.22 ± 0.13,1.1 ± 0.16,1.34 ± 0.15
VNLSEVMTVPGIDPTRI [RPO21],2.92 ± 0.083,3.07 ± 0.094,3.11 ± 0.05,3.05 ± 0.064
LWDSKELEQLVEFNRKV [RPN3],2.97 ± 0.1,2.62 ± 0.093,3.2 ± 0.068,2.81 ± 0.084
PGTNGKVKKPLKYLSVE [PRE7],–,3.5 ± 0.14,3.15 ± 0.09,3.24 ± 0.12
QMTQIMDIMEDFLRYIN [SNF2],1.21 ± 0.032,1.33 ± 0.034,1.4 ± 0.08,1.43 ± 0.027
NVEMEEDVLVNQILMSV [RPL1A],2.83 ± 0.13,3.14 ± 0.1,1.61 ± 0.15,2.92 ± 0.083
WDDHTKKPLSMALNKVL [CDC53],1.99 ± 0.069,2.29 ± 0.076,2.36 ± 0.056,1.94 ± 0.048
TENVAQARIILNHILEK [YGR119C/NUP57],2.58 ± 0.081,2.87 ± 0.08,3.14 ± 0.067,2.86 ± 0.061
EYRDLYTNSVELRSLSK [YMR129W/POM152],3.18 ± 0.082,3.27 ± 0.072,3.24 ± 0.065,2.79 ± 0.29
QRTATLCLEKLMCLSSK [YCS4],1.6 ± 0.049,2.29 ± 0.075,2.49 ± 0.11,1.78 ± 0.057

# Source: the supplement of paper PMC9732359
